Results as given in the domain aggregation screens of Martell et al. (2025).

Test: soluble fraction after stress (log2 fold change); higher = more stays soluble; pooled small domains, quantitative proteomics
Conditions: stress: pH 4
Outline: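 Pooled custom libraries of small protein domains were subjected to pH 4 and measured by high-throughput quantitative proteomics. The log2 fold change in soluble amount per domain is reported, higher values meaning more remained soluble. This is used as a measure of aggregation propensity.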

| Sequence | soluble fraction (log2) |
| --- | --- |
| HMQSAKLSYSDFMQKVNAGDVVSVKIQGPKISGVTTGGGKFMTYAPEDPTLVSTLMQKKVEVMAEP | 0.173 |
| HMSEPHPPFQVVAQFPYKSEYEDDLNFEKDQIITVTSIEDDEWYYGDFKNKGGELVEGIFPKSFVTVK | -0.867 |
| HMEYPNEIARIFNQIPELNVSAVARTLGINKSLLSSYIYGMKKPSPERTEEIKSAIRKIGQNMLAV | 0.000369 |
| HMYHPGFEALREVARQGSFIKAARALGISGPAVSKQIKSLEARLNLVLLHRTTRAVTLTEAGQRLTEILD | -0.437 |
| HMDEQKNREIALIENIQREDLNPYEKALGIRNLMDKYGLTQEEVSKRIGKSRSAVSNTVRILNLAPDVL | -0.0309 |
| HMSFSPYLVRVSITDLNIRKGPGTNYAKTGKFTGKGVFTIVEMQTGKGSDTGWGRLKSGAGWISLDYTEKI | 0.0318 |
| HMSFKQARFMMDAANGKALAWLYSHAEVLDRKDQGENIEIHVMISPADLSRFVNAFGYQPVQS | -0.0667 |
| HMDYNLTKNQKIVFNLLQNSGEPLKAYTILESLKREGLKSPLQVYRALDKLVELGIIHKIESQNSFI | 0.0373 |
| HMSTYTETETAYLKAYSAAGVDGKISDSERGILNMTAEALGITVERTTELEAMFNLTVEEEA | -1.39 |
| HMPHILEITSSKILDELQDEKKMVYFHFEKQSNQYVYRLIFNSKNELMEFKKSLEKNSSILDVRADM | -0.354 |
| HMVFQTAAEKAYEIISKKIMKGEYEPGMRLVRRQLAQELGVSPIPILEAMKRLEQDGLIEYKAHWGSIVTI | -0.56 |
| HMIKKAILPVAGLGTRFLPASKSIPKEMVTVVDRPAIEYVVREAVEAGIEQIILVTHSSKASIENYFDR | -0.217 |
| HMYDKKVFRLLFILNQLDSRKKVSTGELAKEFNVSPRTVQRDIVLLNTTGFPIISLEKGYHSFMEGFSLK | -0.7 |
| HMKAKTYTVQYIDEGKIIKEEELEEGSIINAPEVTKEGHTFIGWYEGEEKYDVYEPITRNLILESKNEIN | -0.989 |
| HMKHSEAIELGKRMLSQALQDVSLVLKKIPEERLQAVAAELNLKTPDELFEKIGLGERLAALVARRLLP | 0.0472 |
| HMAKITERVMGSAALRDYDPNYLPDEVLKALDGYPPFDGYVYKDGILYARVKIGDTFFIIPPI | -1.84 |
| HMGNEMQVPNVAGKTVDEAIEIFNNMGLKVAAENKYAQSDDVKEGDVVKTDPSSGRNVKKGSEITLYISQG | 0.291 |
| HMQQEAVNLVQSRGQQAIEPVHIMQGVMKVGENVTNFIFQKLGMNGQQVALVVDKQIDSLPKVSGGEPYL | -0.0637 |
| HMEKERYDTGIGELNRVLGGGLVKGSLILISGDPGIGKSTLLLQTANNISKKYGKVLYVSGEESEEQIKIR | -0.722 |
| HMSLNHDIWVQELKEKRSGYGISQSRLAIAAGMTRQYLSDIETGKVLPSAERKAAITEALERFNPD | -0.213 |
| HMNTDALIGKTGYVTEIVGERHGRIQFSGGEWSARTEGVSIPVGAEVRVDRIDGATAVVSAV | 0.22 |
| HMTRHSSVDFAGYILRNKENEPIFGFGKHKGKTVVEVLQREQGYFGWLMEADFPLYTKKVLTAIRLNTLNS | 0.316 |
| HMSLLTIDELSQATGVSVRTLRYYVSSGVLDKPTGETRNARYGTHHLDQVRNIKKLQEEGLTLNRILEIKK | -0.405 |
| HMTRQRQLIYNIIQRADDHPTAEMIYARAKAEMPSIAFGTVYRNLKLMVDAGEILHIPVAGEPDRYDK | 0.142 |
| HMVGDLPPQELRVFELIGDGLSNREIADEMILAEKTIKNYVTSLLQKLGMQRRTEAAAFAARLDER | -0.607 |
| HMKEGGREEMSEIVERYGDERALMANITSVQNLMNNMKWTLDQALDALGIKGKERTLITQQLQ | -0.145 |

| Sequence | soluble fraction (log2) |
| --- | --- |
| HMPLPFSPVMFVGTKSGAQTDLDGNYKIETYYSSDSLKVVVLGYAPLAKKVKQGTTSVVNFELSAAS | 0.104 |
| HMRRVEDVRTALEHFAAARNTTPMAMTLDQRREAMRELAASGLLNLRRALSEVAQTLGVARSTVYTYLP | ≥ 0.43 |
| HMLDEIAGQKVRVLEEINNSEGTGKVMYRGVEWMARSVDDAVMAKDSIVTVQSISGVKLMVT | -0.498 |
| HMHPARITATVRVGEGDLVDIEREAELGGPIHSKGVMILSSFLGARYARTVPLSLSASLVFEQSY | 0.0113 |
| HMELSPAELGERLKVARETANVTQDAGAKAAGIARTTLVAIEKGQRSARIDELQTLSRRYGVSVNSLLRR | 0.096 |
| HMRDAKSQLQEALQKSGRLPEYELVSVEGPPHAPVFTYRVRIDGAVVGEGQGASKQAAQQAAAQSALKSG | 0.22 |
| HMTLDEFTDLMNLFKTGHIEQKPVILYGYNYWTSLKSWFEFNNMKFPEMYIDGIINTVDEFKILYNKIF | -0.77 |
| HMEAVLTISPGMYSESVSAELVRLGIITNQKEFNSYLVNNGYAERIQTGDFKIKADMSYDEIARIITK | -0.489 |
| HMEIMELPEYVVRSGSGLDAFREKWDLWDQGLMYDLKDKRAVFPIFIDGVMIDAVGRALAGAEPKWLRYTG | -0.554 |
| HMNPTLPYGFAKRHGVILLEAGEVAVVGLREGADPAALIETRRALGRPLRVEPLDQATFDRRLSQVYA | -0.15 |
| HMEDELVMERFDINELVKSVVNANELRATQKNLSITYDILDTPLYVWADEYKVEEVVTNYLS | -1.06 |
| HMKNKVTVPKVEGMDKEEAIQALNEVGLGYKAVMQSSDSVAEGKVISQGTAAGKKVDKNTQIIITVSGG | ≥ 0.43 |
| HMPLPLYVQIKESLRGQIFDGTYGEHERLPSENDLMSSFGVSRITVRQALSDLEKEELIFKVPGKGAFVSR | -1.28 |
| HMFDENVKLIENEYDVSIISRGSELKVMGDVENVDKAARALRSMLAMINKGESLTEQNVRYVLTLVNEGNE | -1.38 |
| HMEVSYSLPRFHKGKNPYVDFYQVDPRTLRMRRKKFLLRGVRDAVLLEQRAADLVALLTERLHSGWNAWDD | -0.463 |
| HMDLANRSLDRGITILESLARNGASSLADLHRDSGIAKSTIRRLLGTLIQHRLVRRSVADGLYRVTIPLPA | 0.025 |
| HMADFIKEIKTNNPRQLLKSILSSFMPRALILELEMLLWNDLKSKPIGEWSNTQIENVGKLLNNWILKPAA | 0.164 |
| HMRSPLYVQIKQHILGDIRKGVWKPGEKLPTELDLAERFGVSVGTVRRAMGGLEDEGIISRREGSGTFVRT | 0.229 |
| HMDSILSIVGGEESYKALLAWAENNISQQELQQLETILKSGNVPAIKRVLVTLMNRFNQAQS | -0.547 |
| HMGTTLTKIPGIGENRARLLLRHFGSLRAVREADADALAAVKGMTRPAAEAIVRYFEQQDAEGRRD | 0.336 |
| HMNHHTEQQLKALSNKVKDHRMRMRLLAVAHFKAGKNKADVARTLNVSRRMVNEWVANYFKGGVSALES | -0.047 |
| HMGPVALGVTDGATYFSSVTITFRRGTAVLDGEPIASGHTVYKSGAHSLTLTAGGKTRTIAFTMDT | 0.139 |
| HMAVKNAQIDVQQFFYSKSGEVDFGRKIKAIQSHFTPERLQSFTAAVPPSQWVSQLQVMWDSL | -1.68 |
| HMKSNNPLDHVRVKQRGASWAYYFEKAKVDGKRRRGEGGGYATEQDARMAGVEAYNAYIGGGAK | 0.109 |
| HMPVFSAEQVAKAEADVQKVANKVQEAGADVEKLTTIHNWLLAREKYMPPDLFSTANQIIATAFQKAG | 0.279 |
| HMLIPADETEAKVLSVLSREPLHVDEIRNQAGLPIEKISATLALMELKGMVRQVGGMNYVSV | -0.48 |

| Sequence | soluble fraction (log2) |
| --- | --- |
| HMTLGQHIQALRKEAGYSQEALGEALGVTRQSISKWESDQAIPEVDKLVTLSRLFQVPVGVLLQVEQP | -0.166 |
| HMQGAARGMLFAQAQRWMTKFRIDPQQADRITQAALDPAQTDAILREVRRGYGPSAERALRGIIRRARRA | 0.259 |
| HMDEQLAWLYRKINAFSEIDKALILLYLEDKKYDEIAETLGISSVNARVKMNRIKKRLKEMINDR | -1.02 |
| HMDGKPSLIISNGQINYKEMVKLRYSLEDLLFQLRQNSIKSIEEVEYAFLESNGKLSIFPYNFL | -1.65 |
| HMRKEPSYASDIITRLKEADLIVVEGTLYPLLTRLKKDGLLSYEWRESTQGPPRKYYALTLDGET | -0.895 |
| HMGESYQIKDGELLVDIAQRVKPAGMTLRQTINALVAANPRAFRNGNPDLMYRGATLTIPDGDTLRRLAH | 0.0238 |
| HMSSSDYDVYNKAINLMLNLLKEPKSIEEVTASLNITKSQAITWINRALNEGKIIKTNRPVRYVVNN | 0.0142 |
| HMPPLVLRGVVMGADGARLAILAQGEAGAALGIGETWKEYTLRSVTDQSATLEHRSGTITLTR | -0.437 |
| HMTNVYSLIGKRGIVVEDIDWQKGTGQVKIDGELWSVKTNEQINISKGTEVEVENIEGVKVFVKPI | -0.458 |
| HMQRDERYVYHTVLAGETIYSLSRKFNVTMDELLESNPALRSGVLTTGSEIRVLKAQMAQNFD | 0.383 |
| HMDWREMTAWMAELLKRRTGDDVETWNARVRESGAHDEASLRAWLTEQGVTGYAQTLLVMERFGYPDFF | -1.67 |
| HMAVPFTIDVSQNGRYFIEEDNQVVEVSIGFLEDRFLRIIKSNPDIEVIIRGDAKASYESIAELLAVLQ | -0.782 |
| HMDVKPWERQEGESAKAFEAFTIYAGLGADRSLRAVAQQLGKSKTLMDRWSSTYSWVARAAEYDADLQRK | ≥ 0.43 |
| HMNTYEIIGGDNRARGPVTGEELSQWIREGRASGHTMARVSDGEHWQPLGSFPEFVGPLQGLPW | -0.163 |
| HMTGVPYLVRVKITDLHIRSGPGTNYASKGFIAPGAYTIVEESTGQGAALWGKLKSGKGWIALGYTEK | 0.0451 |
| HMEGIWAVFYDGKPINLKSSSLVANYPGPKYKKVSFSNPGHAENLAKKLNAQHNTDKFGVYLLKSGDKFS | 0.219 |
| HMEGEVVESPLVGVAYLASGPDKPAFVQVGDSVSKGQTLLIIEAMKVMNEVPAPRDGIVTEILV | -0.279 |
| HMSWAGRRSLAALEARYRDETGISNLKIKHNGVLGYHIEVPSKSADKLMAPDSGFTHRQTLAGAVR | 0.00623 |
| HMDENTEQESQTVVVPDVTGKSLSEAASILREAGLDYLAEQTGTVVTKQMPLPDAEVLINTTVLLYTDSE | -0.456 |
| HMKILVTDDNIRIDKYLTTQTEYSRSTIQKMIESNNILVNNKPTKSNYILRNNDEITIDENFNEE | -0.0512 |
| HMANVQLAKNLKTLRKKYNYTQQDVSTFLNITRQAYSHYEQALREPDLNTLVHLSRFYQVTLDELI | -1.6 |
| HMAILDTALDVLSMNLKDNYTSFQILRQAAIAGKIAFNLTEKNPLGGVIEVELTGDDLETWIEAATW | -0.697 |
| HMQIDDSVELSAIVEKLLAANPEQVEQLKNGKTKVLGYFVGLAMKETQGRANPQKVNELIQTHL | -0.308 |
| HMDINLSENLVRLRHAKKLTQEQLADFLGVTKASVSKWETRQSLPDILLLPRLAAFYGVTVDELIGYEP | ≥ 0.43 |
